Reference: patent US10526416B2, “Anti-HER3 antibodies and uses of same” (Yeda Research and Development Co. Ltd., priority 2014, dated 2020)

What was measured:
BxPC3 cells = experiment: MTT assay on BxPC3 cells in culture; type: cell-based, human; settings: 3 days
Procedure: (§1) FIGS. 15A-F show the effects of a mixture of two anti HER3 mAbs, in vivo on BxPC3 cell xenografts and in vitro. (FIGS. 15A-C) CD1-Nude mice were grafted subcutaneously with 5×10^6 BxPC3 cells. Once tumors became palpable (after 13 days), the mice were randomized into group of 8 mice and treated every 3 days for 5 weeks. The control group (CTRL) was injected intra-peritoneally (IP) with 200 μl PBS. The other groups were treated with mAb alone or in combination at a final concentration of 0.2 mg/0.2 ml of PBS per mouse. The mice were weighted once a week and the tumors measured twice a week. An average tumor size of 7-8 mice (+/−SEM) is shown. (FIGS. 15D-F) Proliferation assays using MTT were performed on BxPC-3. 5,000 cells per well were plated the day before and treated for 72 h with the indicated mAb treatment. Decreasing concentrations of the indicated mAb (alone or in combination) were used in medium supplemented with 1% serum and NRG (10 ng/ml).
To determine if the combination of NG33 mAb with another anti-HER3 mAb is more efficient than using NG33 alone, the combination of two mAbs, NG33 and XC252, was tested on several tumor cell lines, which were grafted subcutaneously (gastric: N87, lung: A549, pancreatic: BxPC3, ovarian: OVCAR-5, and head and neck: CAL-27, FIG. 14). This pilot was performed with 3 mice per group. Mice were injected twice a week with the mAb combination or with PBS. The best responder of these in vivo models for solid tumor growth was the BxPC3 xenograft model. […] This experiment was performed on 7 to 8 mice per group. The mice were treated every 3 days with PBS, each mAb alone or a mAb combination, for 5 weeks (0.2 mg/injection). […] In order to reinforce the in vivo data, the cytotoxicity of each mAb alone or in combination with NG33 was tested on BxPC3 cells in culture (FIGS. 15D, 15E and 15F). Decreasing concentrations of mAb were used and a MTT assay was performed following 3 days of treatment. […] On the contrary, XC252 used alone has a […] cytotoxic impact on BxPC3 proliferation leading to 60% inhibition of cell survival at high concentration.

NRG binding to HER3 = NRG binding to HER3 (Homo sapiens, UniProt P21860); settings: increasing mAb concentrations, 45 min at 4° C., then d2-labeled NRG
Procedure: (FIG. 9A) The indicated mAbs were checked for their capacity to compete with fluorescent dye labeled NRG. […] After washes, the labeled-NRG was added and incubated for 30 min at 4° C. Fluorescence intensity at 670 nm was determined following 3 final washes. (FIG. 9B) The ability of the mAbs to avoid NRG-induced phosphorylation of HER3, AKT and ERK, was studied with N87 cells. After 20 min treatment with the indicated mAbs (10 μg/ml) at 37° C., NRG (20 ng/ml) was added to the cells for 10 min. The cells were then lysed, and equal quantities of protein lysates were run on 9% bisacrylamide gel before immunoblotting with the indicated primary antibodies. (FIG. 9C) The capacity of mAb NG33 to avoid NRG-induced migration was checked with OVCAR-5 cells and the quantification reported in a histogram. […] Signals of triplicates were quantified. **** […] (ANOVA and post hoc tests).
Agent labeling was performed by Cisbio. […] Following 1 h incubation, the plate was washed 4 times with KREBS buffer (146 mM NaCl, 4 mM KCl, 0.5 mM MgCl2, 1 mM CaCl2, 10 mM Hepes, 1 gr/L glucose, and 1 mg/mL albumin), and the fluorescent intensity (excitation: 488 nm, emission: 610 nm) was measured using a fluorescence microplate reader. […] Finally, following two washes with KREBS buffer, the fluorescence intensity was measured at 670 nm (excitation: 620 nm). […]

BxPC3 xenografts = experiment: BxPC3 cell xenografts in CD1-Nude mice; type: in vivo; settings: 0.2 mg/injection IP every 3 days for 5 weeks, 7 to 8 mice per group
Procedure: as §1
All animal studies were approved by the Weizmann Institute's Review Board (IRB). Tumor bearing CD1/nude mice were randomized in groups of five-ten mice and injected subcutaneously in the right flank with cancer cells (3-5×10^6 per mouse depending on the cell line). mAbs were injected intraperitoneally at a total dose of 200 μg per mouse per injection, twice a week, for 5 weeks or until tumors reached the size of 1,500 mm^3. In experiments evaluating the effect of the TKI AZD-9291, Vehicle (Vehicle formulation: HPMC 0.5% (sigma Cat#56340), Tween80 0.1% (Sigma Cat #P8074 in water), Erlotinib at a dose of 50 mg/kg per injection, or AZD9291 at a dose of 1 or 5 mg/kg per injection were injected daily intraperitoneally. In one experiment (FIG. 16), mice were treated daily with Erlotinib at a dose of 50 mg/kg per injection until tumors reached a size of 800 mm^3 and only then were treated as indicated. Tumor volume and body weight were evaluated twice and once per week, respectively. Mice were euthanized when tumor size reached 1,500 mm^3. […] Survival of the tumor bearing mice was recorded and depicted by Kaplan-Meier analysis. […]

NRG binding to HER3, sequence (P21860 20-1342): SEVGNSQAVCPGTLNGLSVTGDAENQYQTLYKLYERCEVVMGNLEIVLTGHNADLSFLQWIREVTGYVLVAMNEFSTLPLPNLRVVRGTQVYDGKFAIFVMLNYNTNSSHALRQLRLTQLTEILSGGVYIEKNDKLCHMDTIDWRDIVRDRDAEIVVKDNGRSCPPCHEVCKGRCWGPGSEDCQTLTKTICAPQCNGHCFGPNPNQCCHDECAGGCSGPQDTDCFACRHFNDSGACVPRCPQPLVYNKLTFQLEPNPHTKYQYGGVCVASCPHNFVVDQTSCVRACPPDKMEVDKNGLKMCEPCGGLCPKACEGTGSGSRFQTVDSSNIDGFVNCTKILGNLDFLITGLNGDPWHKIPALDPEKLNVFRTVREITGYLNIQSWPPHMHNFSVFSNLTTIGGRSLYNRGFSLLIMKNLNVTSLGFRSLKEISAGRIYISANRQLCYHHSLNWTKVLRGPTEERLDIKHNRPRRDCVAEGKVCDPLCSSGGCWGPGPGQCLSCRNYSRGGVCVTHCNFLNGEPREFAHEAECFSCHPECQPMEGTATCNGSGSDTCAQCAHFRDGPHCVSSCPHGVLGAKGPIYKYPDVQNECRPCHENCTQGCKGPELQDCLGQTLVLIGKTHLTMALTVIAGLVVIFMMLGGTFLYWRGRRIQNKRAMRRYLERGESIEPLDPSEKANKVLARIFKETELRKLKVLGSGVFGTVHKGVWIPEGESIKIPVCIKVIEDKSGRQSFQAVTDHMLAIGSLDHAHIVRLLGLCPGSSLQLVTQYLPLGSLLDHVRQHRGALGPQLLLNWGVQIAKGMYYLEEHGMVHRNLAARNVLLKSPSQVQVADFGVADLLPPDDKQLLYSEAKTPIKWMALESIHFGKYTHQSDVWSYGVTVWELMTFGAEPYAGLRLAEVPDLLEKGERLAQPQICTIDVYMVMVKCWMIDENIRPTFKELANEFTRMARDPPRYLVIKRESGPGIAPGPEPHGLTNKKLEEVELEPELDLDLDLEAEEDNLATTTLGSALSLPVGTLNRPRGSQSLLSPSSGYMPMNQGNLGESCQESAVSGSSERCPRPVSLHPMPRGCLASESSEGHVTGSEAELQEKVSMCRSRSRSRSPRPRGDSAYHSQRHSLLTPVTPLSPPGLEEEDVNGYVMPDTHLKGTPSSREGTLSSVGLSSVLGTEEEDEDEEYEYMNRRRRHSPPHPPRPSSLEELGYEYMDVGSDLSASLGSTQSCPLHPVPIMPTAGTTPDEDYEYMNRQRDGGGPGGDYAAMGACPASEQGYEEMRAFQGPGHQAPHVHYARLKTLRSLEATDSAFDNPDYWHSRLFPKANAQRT

B1: XC252: anti-HER3 mAb generated as described in Chen X, et al. (1996); heavy and light chain SEQ ID NOs: 49 and 53 (antibody, V domains shown)
VH: EVQLQQSGAELVRPGVSVKISCKGSGYTFTDYAMHWVKQSHAKSLEWIGVISTYYGDPRDNQKFKGKATMTVDKSSSTAYMELARLTSEDSAIYYCARGDYDWYAIDYWGQGTSVTVSS
VL: DVVMTQTPLSLPVSLGDQASISCRSSQSIVHSDGNTYLEWYLQKPGQSPKLLIYKVSNRFSGVPDRFSGSGSGTDFTLKISRVEAEDLGVYYCFQGSHVPPTFGGGTKLEIK
modifications: VH chain of XC252 polypeptide; VL chain of XC252 polypeptide
inhibition of cell survival (BxPC3 cells; high concentration, 1% serum, NRG 10 ng/ml): 60%
effect on NRG binding to HER3 (NRG binding to HER3): slightly enhanced NRG binding
effect on BxPC3 xenograft tumor growth (BxPC3 xenografts): no statistically significant ability to decrease tumor growth

B2: NG83: anti-HER3 mAb; light chain CDRs SEQ ID NOs: 7-9, heavy chain CDRs 10-12 (antibody, V domains shown)
VH: QIQLVQSGPELKKRGETVKISCKASGYTFTNYGMNWVRQAPGKGLKCMGWINTYAGEPTYADDFKGRFAFSLDSSASTAYLQINNLKNEDMATYFCARGGITGAMDYWGQGTSVTVSS
VL: DVVMTQKTSSLSTSLGDRVTISCRASQDIRNYLNWYQQKPDGTVKLLIYYTSRLHSGVPSRFSGSGSGTDYSLTISDLEQEDIATYFCQQGNTLPWTFGGGTKLAIK
modifications: VH chain of NG83 polypeptide; VL chain of NG83 polypeptide
effect on BxPC3 proliferation/survival (in words) (BxPC3 cells): did not interfere with cell proliferation
effect on NRG binding to HER3 (NRG binding to HER3): did not disturb NRG binding
effect on BxPC3 xenograft tumor growth (BxPC3 xenografts): no statistically significant ability to decrease tumor growth
